Molecular target: DNA polymerase theta helicase domain (Polθ-hel, residues 1–894) (human), O75417
Experiment: cryo-EM structure
Settings: remark: other sources report otherwise

percent of particles in the dimeric form: 95%
percent of particles in the tetrameric form: 5%
B1: DNA polymerase theta helicase domain (Polθ-hel, residues 1–894), O75417 1-894 (domain or fragment)
chain: MNLLRRSGKRRRSESGSDSFSGSGGDSSASPQFLSGSVLSPPPGLGRCLKAAAAGECKPTVPDYERDKLLLANWGLPKAVLEKYHSFGVKKMFEWQAECLLLGQVLEGKNLVYSAPTSAGKTLVAELLILKRVLEMRKKALFILPFVSVAKEKKYYLQSLFQEVGIKVDGYMGSTSPSRHFSSLDIAVCTIERANGLINRLIEENKMDLLGMVVVDELHMLGDSHRGYLLELLLTKICYITRKSASCQADLASSLSNAVQIVGMSATLPNLELVASWLNAELYHTDFRPVPLLESVKVGNSIYDSSMKLVREFEPMLQVKGDEDHVVSLCYETICDNHSVLLFCPSKKWCEKLADIIAREFYNLHHQAEGLVKPSECPPVILEQKELLEVMDQLRRLPSGLDSVLQKTVPWGVAFHHAGLTFEERDIIEGAFRQGLIRVLAATSTLSSGVNLPARRVIIRTPIFGGRPLDILTYKQMVGRAGRKGVDTVGESILICKNSEKSKGIALLQGSLKPVRSCLQRREGEEVTGSMIRAILEIIVGGVASTSQDMHTYAACTFLAASMKEGKQGIQRNQESVQLGAIEACVMWLLENEFIQSTEASDGTEGKVYHPTHLGSATLSSSLSPADTLDIFADLQRAMKGFVLENDLHILYLVTPMFEDWTTIDWYRFFCLWEKLPTSMKRVAELVGVEEGFLARCVKGKVVARTERQHRQMAIHKRFFTSLVLLDLISEVPLREINQKYGCNRGQIQSLQQSAAVYAGMITVFSNRLGWHNMELLLSQFQKRLTFGIQRELCDLVRVSLLNAQRARVLYASGFHTVADLARANIVEVEVILKNAVPFKSARKAVDEEEEAVEERRNMRTIWVTGRKGLTEREAAALIVEEARMILQQDLVEM
